According to article PMC10445657:

T1: RORα S100D (human, UniProt P35398 1-523, S100D)
T1 sequence: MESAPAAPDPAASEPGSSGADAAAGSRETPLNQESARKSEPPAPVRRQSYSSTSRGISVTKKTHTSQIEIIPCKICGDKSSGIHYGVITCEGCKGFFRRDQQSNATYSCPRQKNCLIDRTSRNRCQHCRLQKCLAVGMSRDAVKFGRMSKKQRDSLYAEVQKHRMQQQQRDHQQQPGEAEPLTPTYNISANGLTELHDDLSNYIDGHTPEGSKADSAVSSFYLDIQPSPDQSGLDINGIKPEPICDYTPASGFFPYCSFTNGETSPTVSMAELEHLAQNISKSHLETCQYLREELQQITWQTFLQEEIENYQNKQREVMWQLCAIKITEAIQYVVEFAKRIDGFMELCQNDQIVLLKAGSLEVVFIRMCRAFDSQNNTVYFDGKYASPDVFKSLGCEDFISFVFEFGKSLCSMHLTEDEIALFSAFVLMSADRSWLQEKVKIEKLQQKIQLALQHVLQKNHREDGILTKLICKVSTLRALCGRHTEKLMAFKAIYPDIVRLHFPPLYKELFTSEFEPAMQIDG


Target: T1, RORα S100D
Experiment: EMSA

Row | Binder | binding result
1 | HRE probe (dsDNA) DNA 1: GATCTCGACAGTGACCCTTTTAACCAGGTCAGTGAG DNA 2: CTCACTGACCTGGTTAAAAGGGTCACTGTCGAGATC | no binding
2 | RORE probe (dsDNA) DNA 1: GATCTCGACTCGTATATCAAGGTCATGCTG DNA 2: CAGCATGACCTTGATATACGAGTCGAGATC | no binding
